Measurements taken from PMC7413564, “Phase separation of Arabidopsis EMB1579 controls transcription, mRNA splicing, and development” (PLoS Biology, 2020).

Target: T1, Oregon Green-labeled EMB1579 (Arabidopsis thaliana, UniProt F4IS91-1 1-1340, Oregon Green label (site not stated))
T1 construct: full-length CDS amplified from seedling cDNA; phase-separated in F-buffer in the assay; also called Oregon Green-EMB1579; EMB1579 condensates; source: Sf9 insect cells (pFastBac1-EMB1579), purified (Ni-NTA, SuperDex 200 Increase), labelled with Oregon Green
T1 sequence (looked up): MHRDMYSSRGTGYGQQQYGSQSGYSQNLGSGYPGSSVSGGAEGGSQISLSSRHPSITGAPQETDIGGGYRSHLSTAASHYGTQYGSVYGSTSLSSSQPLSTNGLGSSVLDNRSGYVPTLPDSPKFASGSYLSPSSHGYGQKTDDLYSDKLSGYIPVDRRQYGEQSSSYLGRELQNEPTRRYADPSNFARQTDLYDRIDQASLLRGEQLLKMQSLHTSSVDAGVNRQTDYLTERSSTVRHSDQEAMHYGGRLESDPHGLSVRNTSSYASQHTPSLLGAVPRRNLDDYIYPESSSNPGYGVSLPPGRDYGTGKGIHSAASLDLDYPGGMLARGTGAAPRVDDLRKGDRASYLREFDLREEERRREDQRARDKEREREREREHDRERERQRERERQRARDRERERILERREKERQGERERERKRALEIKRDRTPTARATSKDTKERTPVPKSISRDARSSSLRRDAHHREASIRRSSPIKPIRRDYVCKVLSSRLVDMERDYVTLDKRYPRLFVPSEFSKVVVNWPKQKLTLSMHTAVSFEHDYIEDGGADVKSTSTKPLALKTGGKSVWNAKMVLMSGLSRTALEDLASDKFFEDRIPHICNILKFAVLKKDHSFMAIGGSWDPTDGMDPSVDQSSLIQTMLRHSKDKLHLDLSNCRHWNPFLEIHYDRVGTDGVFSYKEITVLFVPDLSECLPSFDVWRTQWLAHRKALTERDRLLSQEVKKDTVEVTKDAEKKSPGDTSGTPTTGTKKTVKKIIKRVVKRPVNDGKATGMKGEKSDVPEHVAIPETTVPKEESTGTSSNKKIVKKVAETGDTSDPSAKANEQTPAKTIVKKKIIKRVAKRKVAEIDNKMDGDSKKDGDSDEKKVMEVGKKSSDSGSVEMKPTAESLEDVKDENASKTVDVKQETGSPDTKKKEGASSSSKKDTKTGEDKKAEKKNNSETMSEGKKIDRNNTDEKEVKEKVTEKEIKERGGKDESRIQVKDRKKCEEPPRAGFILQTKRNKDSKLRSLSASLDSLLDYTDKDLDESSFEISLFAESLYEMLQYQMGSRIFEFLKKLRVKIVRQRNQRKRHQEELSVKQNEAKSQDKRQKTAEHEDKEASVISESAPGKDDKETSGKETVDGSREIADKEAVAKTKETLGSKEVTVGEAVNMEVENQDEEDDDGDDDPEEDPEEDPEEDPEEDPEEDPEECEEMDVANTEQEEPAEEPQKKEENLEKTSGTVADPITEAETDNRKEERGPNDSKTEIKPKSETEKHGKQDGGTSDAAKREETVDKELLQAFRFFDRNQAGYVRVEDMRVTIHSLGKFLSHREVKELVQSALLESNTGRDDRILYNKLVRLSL
Assay: recruitment into condensates in vitro (confocal fluorescence microscopy); Oregon Green-labeled EMB1579 (2.5 μM) with mCherry-DDB1B (500 nM) or mCherry-MSI4 (20 nM) in F-buffer (25 mM Hepes pH 8.0, 100 mM KCl, 100 mg/ml PEG 3350), 5 minutes, room temperature
Conditions: both partners purified

B1: mCherry-MSI4 (natural protein, Arabidopsis thaliana, UniProt O22607 1-507, looked up)
chain: MESDEAAAVSPQATTPSGGTGASGPKKRGRKPKTKEDSQTPSSQQQSDVKMKESGKKTQQSPSVDEKYSQWKGLVPILYDWLANHNLVWPSLSCRWGPQLEQATYKNRQRLYLSEQTDGSVPNTLVIANCEVVKPRVAAAEHISQFNEEARSPFVKKYKTIIHPGEVNRIRELPQNSKIVATHTDSPDVLIWDVETQPNRHAVLGAANSRPDLILTGHQDNAEFALAMCPTEPFVLSGGKDKSVVLWSIQDHITTIGTDSKSSGSIIKQTGEGTDKNESPTVGPRGVYHGHEDTVEDVAFSPTSAQEFCSVGDDSCLILWDARTGTNPVTKVEKAHDADLHCVDWNPHDDNLILTGSADNTVRLFDRRKLTANGVGSPIYKFEGHKAAVLCVQWSPDKSSVFGSSAEDGLLNIWDYDRVSKKSDRAAKSPAGLFFQHAGHRDKVVDFHWNASDPWTIVSVSDDCETTGGGGTLQIWRMSDLIYRPEEEVVAELEKFKSHVMTCASKP
notes: MSI4, Arabidopsis; amplified with MSI4-SalI-F/MSI4-XbaI-R2 from pEZS-NL-RFP-MSI4 and moved into pColdI-mCherry; also called recombinant MSI4 protein; source: E. coli BL21 (DE3) (pColdI-mCherry-MSI4), purified (Ni-NTA); not shown: mCherry, N-terminal, kept
B1: binds.

B2: mCherry-DDB1B (natural protein, Arabidopsis thaliana, UniProt O49552 1-1088, looked up)
chain: MSVWNYAVTAQKPTCVTHSCVGNFTSPQELNLIVAKSTRIEIHLLSPQGLQTILDVPLYGRIATMELFRPHGEAQDFLFVATERYKFCVLQWDYESSELITRAMGDVSDRIGRPTDNGQIGIIDPDCRVIGLHLYDGLFKVIPFDNKGQLKEAFNIRLEELQVLDIKFLYGCTKPTIAVLYQDNKDARHVKTYEVSLKDKNFVEGPWSQNNLDNGADLLIPVPSPLCGVLIIGEETIVYCSANAFKAIPIRPSITKAYGRVDLDGSRYLLGDHAGLIHLLVITHEKEKVTGLKIELLGETSIASSISYLDNAVVFVGSSYGDSQLIKLNLQPDAKGSYVEILEKYVNLGPIVDFCVVDLERQGQGQVVTCSGAYKDGSLRIVRNGIGINEQASVELQGIKGMWSLKSSIDEAFDTFLVVSFISETRILAMNIEDELEETEIEGFLSEVQTLFCHDAVYNQLVQVTSNSVRLVSSTTRELRNKWDAPAGFSVNVATANASQVLLATGGGHLVYLEIGDGTLTEVKHVLLEYEVSCLDINPIGDNPNYSQLAAVGMWTDISVRIFVLPDLTLITKEELGGEIIPRSVLLCAFEGISYLLCALGDGHLLNFQLDTSCGKLRDRKKVSLGTRPITLRTFSSKSATHVFAASDRPAVIYSNNKKLLYSNVNLKEVSHMCPFNSAAFPDSLAIAREGELTIGTIDDIQKLHIRTIPIGEHARRICHQEQTRTFAISCLRNEPSAEESESHFVRLLDAQSFEFLSSYPLDAFECGCSILSCSFTDDKNVYYCVGTAYVLPEENEPTKGRILVFIVEEGRLQLITEKETKGAVYSLNAFNGKLLASINQKIQLYKWMLRDDGTRELQSECGHHGHILALYVQTRGDFIAVGDLMKSISLLIYKHEEGAIEERARDYNANWMTAVEILNDDIYLGTDNCFNIFTVKKNNEGATDEERARMEVVGEYHIGEFVNRFRHGSLVMKLPDSDIGQIPTVIFGTVSGMIGVIASLPQEQYAFLEKLQTSLRKVIKGVGGLSHEQWRSFNNEKRTAEAKGYLDGDLIESFLDLSRGKMEEISKGMDVQVEELCKRVEELTRLH
notes: DDB1B, Arabidopsis; amplified with DDB1B-EcoRI-F/DDB1B-SalI-R2 from pFGC5941-DDB1B-RFP and moved into pColdI behind mCherry; source: E. coli BL21 (DE3) (pColdI-mCherry-DDB1B), purified (Ni-NTA); not shown: mCherry, N-terminal, kept
B2: binds.
